22 substances from patent publication US20180140673A1 can be followed below.

In test [1] the target is FGFR1c receptor/BKL complex on differentiated mouse 3T3-L1 adipocytes (mouse) (UniProt P16092). The experiment in a line: cell-based or functional assay.
For test [2], the target named is FGF receptor/BKL complex on HEK293 cells overexpressing human beta-klotho (BKL) (human) (UniProt Q86Z14). As to the kind of experiment: cell-based or functional assay.
Sequence of FGF receptor/BKL complex on HEK293 cells overexpressing human beta-klotho (BKL) (human) (Q86Z14 whole entry, one chain of several): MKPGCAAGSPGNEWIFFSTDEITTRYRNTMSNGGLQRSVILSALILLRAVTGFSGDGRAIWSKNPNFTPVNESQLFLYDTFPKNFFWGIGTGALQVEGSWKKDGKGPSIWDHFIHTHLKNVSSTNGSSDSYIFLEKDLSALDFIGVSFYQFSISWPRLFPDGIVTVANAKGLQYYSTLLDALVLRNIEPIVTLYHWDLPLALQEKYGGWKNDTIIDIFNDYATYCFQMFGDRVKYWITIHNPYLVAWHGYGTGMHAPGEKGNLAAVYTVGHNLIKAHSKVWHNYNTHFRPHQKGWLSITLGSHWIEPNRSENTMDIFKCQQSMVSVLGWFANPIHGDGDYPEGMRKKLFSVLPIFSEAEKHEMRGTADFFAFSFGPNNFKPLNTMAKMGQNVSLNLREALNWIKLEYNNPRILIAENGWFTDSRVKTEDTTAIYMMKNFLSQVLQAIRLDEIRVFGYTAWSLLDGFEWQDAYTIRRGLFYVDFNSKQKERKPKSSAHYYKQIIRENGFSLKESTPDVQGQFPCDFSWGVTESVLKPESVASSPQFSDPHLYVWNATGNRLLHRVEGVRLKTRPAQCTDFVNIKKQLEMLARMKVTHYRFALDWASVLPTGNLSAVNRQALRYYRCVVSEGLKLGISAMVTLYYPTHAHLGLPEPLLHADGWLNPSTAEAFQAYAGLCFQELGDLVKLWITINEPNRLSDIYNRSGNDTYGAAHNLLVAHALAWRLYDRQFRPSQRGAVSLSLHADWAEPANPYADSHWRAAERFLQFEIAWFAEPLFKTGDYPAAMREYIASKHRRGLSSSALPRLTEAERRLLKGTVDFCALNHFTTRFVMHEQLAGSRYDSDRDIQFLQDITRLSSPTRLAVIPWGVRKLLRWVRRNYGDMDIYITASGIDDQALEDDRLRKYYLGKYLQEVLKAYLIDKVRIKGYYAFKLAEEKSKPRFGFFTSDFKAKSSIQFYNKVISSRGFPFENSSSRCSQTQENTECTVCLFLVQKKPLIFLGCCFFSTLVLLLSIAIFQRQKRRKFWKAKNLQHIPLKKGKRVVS

Sequence of S{Beta-179}-2-aminoethylsulfanyl-Ala[Gln121,Leu168,Cys179]FGF21 (Q9NSA1 other isoform, or with tags, fused parts or gaps limits assumed): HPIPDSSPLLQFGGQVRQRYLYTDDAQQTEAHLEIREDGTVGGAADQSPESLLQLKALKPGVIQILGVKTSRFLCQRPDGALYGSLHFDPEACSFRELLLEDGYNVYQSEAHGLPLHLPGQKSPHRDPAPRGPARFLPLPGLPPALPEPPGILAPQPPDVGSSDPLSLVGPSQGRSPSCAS
Sequence of Ala[Gln121,Leu168]FGF21 (Q9NSA1 other isoform, or with tags, fused parts or gaps limits assumed): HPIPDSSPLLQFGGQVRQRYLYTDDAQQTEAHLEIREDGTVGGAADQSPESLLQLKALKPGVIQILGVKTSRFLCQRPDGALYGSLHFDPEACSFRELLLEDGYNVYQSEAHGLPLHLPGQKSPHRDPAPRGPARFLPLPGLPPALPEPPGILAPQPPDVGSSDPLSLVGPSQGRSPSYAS
Sequence of S{Beta-181}-2-aminoethylsulfanyl-Ala[Gln121,Leu168,Cys181]FGF21 (Q9NSA1 other isoform, or with tags, fused parts or gaps limits assumed): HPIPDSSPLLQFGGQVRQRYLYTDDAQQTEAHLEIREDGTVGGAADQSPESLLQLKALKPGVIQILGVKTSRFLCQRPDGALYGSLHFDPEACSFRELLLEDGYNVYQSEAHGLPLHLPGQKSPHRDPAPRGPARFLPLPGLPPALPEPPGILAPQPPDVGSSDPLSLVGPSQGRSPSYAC
Sequence of S{Beta-178}-2-aminoethylsulfanyl-Ala[Gln121,Leu168,Cys178]FGF21 (Q9NSA1 other isoform, or with tags, fused parts or gaps limits assumed): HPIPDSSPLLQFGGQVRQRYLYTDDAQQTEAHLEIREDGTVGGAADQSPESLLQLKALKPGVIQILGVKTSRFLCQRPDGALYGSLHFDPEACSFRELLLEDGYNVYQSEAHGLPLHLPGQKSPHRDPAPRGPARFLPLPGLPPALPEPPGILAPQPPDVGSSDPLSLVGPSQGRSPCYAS
Sequence of S{Beta-180}-2-aminoethylsulfanyl-Ala[Gln121,Leu168,Cys180,des181]FGF21 (Q9NSA1 other isoform, or with tags, fused parts or gaps limits assumed): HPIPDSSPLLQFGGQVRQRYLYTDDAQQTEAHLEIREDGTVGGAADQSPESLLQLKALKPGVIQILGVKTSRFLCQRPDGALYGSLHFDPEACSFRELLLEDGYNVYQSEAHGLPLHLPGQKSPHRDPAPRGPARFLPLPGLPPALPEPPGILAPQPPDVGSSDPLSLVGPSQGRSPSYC
Sequence of S{Beta-176}-2-aminoethylsulfanyl-Ala[Gln121,Leu168,Cys176]FGF21 (Q9NSA1 other isoform, or with tags, fused parts or gaps limits assumed): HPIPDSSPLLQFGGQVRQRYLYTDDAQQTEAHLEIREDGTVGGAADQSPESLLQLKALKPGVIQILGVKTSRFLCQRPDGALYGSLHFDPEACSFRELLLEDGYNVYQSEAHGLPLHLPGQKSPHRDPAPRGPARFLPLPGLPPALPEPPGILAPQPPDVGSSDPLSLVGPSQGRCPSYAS
Sequence of FGFR1c receptor/BKL complex on differentiated mouse 3T3-L1 adipocytes (mouse) (P16092 22-822, chain 1 of 2): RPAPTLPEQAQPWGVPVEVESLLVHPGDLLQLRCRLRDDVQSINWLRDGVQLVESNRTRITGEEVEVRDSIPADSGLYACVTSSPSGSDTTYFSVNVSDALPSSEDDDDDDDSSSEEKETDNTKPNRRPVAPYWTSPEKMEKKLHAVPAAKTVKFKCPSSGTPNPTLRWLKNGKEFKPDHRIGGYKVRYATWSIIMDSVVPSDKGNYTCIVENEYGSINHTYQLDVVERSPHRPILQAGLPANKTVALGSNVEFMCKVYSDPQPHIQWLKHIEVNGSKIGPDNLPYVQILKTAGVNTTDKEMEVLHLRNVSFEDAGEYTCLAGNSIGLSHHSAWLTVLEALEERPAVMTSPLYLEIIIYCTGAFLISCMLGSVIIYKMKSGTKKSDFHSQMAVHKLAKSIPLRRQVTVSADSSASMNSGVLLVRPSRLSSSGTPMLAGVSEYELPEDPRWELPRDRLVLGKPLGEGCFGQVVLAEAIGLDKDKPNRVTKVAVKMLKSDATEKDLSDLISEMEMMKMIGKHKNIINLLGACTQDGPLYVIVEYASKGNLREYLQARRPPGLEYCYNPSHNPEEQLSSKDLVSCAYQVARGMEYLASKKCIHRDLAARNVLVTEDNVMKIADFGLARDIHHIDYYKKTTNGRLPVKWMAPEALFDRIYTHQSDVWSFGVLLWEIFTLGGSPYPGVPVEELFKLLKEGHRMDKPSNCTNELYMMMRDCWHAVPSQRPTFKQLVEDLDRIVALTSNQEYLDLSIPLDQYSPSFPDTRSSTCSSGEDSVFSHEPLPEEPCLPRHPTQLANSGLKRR
Sequence of FGFR1c receptor/BKL complex on differentiated mouse 3T3-L1 adipocytes (mouse) (Q99N32 whole entry, chain 2 of 2, further chain): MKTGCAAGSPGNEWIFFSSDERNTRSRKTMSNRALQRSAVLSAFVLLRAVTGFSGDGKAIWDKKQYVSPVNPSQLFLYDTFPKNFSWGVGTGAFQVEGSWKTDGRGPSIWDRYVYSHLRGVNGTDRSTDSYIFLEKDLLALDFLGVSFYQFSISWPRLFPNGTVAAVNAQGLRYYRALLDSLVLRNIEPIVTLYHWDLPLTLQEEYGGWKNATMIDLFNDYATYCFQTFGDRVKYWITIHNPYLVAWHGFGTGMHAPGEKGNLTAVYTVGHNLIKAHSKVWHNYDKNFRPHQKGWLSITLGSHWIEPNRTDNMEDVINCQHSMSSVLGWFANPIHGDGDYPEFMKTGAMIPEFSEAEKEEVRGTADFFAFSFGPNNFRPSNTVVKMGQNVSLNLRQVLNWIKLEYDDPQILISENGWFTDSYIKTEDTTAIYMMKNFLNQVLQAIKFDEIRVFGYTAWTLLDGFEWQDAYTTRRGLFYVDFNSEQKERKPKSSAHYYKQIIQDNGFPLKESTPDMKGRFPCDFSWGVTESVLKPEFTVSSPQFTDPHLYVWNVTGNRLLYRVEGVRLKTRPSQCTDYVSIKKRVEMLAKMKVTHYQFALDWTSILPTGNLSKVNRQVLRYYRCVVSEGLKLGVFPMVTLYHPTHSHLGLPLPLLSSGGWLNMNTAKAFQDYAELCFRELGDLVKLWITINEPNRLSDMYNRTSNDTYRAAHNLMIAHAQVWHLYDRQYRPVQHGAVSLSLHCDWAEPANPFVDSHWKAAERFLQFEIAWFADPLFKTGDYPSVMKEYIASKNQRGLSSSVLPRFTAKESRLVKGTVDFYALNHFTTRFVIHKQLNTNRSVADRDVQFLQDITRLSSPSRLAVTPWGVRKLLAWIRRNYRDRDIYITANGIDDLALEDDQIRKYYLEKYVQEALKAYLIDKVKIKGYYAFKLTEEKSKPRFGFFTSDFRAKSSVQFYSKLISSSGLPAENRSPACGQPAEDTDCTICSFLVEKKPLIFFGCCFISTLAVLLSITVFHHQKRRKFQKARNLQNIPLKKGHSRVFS
Sequence of S{Beta-180}-2-aminoethylsulfanyl-Ala[Gln121,Leu168,Cys180]FGF21 (Q9NSA1 other isoform, or with tags, fused parts or gaps limits assumed): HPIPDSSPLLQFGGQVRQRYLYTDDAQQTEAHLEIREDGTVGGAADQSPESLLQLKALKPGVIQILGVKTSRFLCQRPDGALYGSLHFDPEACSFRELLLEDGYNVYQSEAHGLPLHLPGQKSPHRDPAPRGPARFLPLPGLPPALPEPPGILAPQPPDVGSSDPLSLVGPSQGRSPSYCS

In test [1], “Ala[Gln121,Leu168]FGF21 (from UniProt Q9NSA1 29-209) (ligand)” came in with a Glucose uptake EC50 (nM), 3T3-L1 adipocytes of 3.1 nM and a Glucose uptake Emax (%), 3T3-L1 adipocytes of 85%. In addition, in test [2], the EC50 (nM), pERK, HEK293/BKL cells came out at 2 nM.
In test [2], “S{Beta-168}-[2-[2-[[2-[2-[2-[[2-[2-[2-[[(4S)-4-carboxy-4-(13-carboxytridecanoyl-amino)butanoyl]amino]ethoxy]ethoxy]acetyl]amino]ethoxy]ethoxy]acetyl]amino]-ethylamino]-2-oxoethyl]-Ala[Gln121,Cys168]FGF21 (from UniProt Q9NSA1 29-209) (ligand)” came in with an EC50 (0.1% HSA) (nM), pERK, HEK293/BKL cells of 4260 nM and an EC50 (nM), pERK, HEK293/BKL cells of 667 nM.
In the same order, the values of “S{Beta-169}-[2-[2-[[2-[2-[2-[[2-[2-[2-[[(4S)-4-carboxy-4-(15-carboxypentadecanoyl-amino)butanoyl]amino]ethoxy]ethoxy]acetyl]amino]ethoxy]ethoxy]acetyl]amino]-ethylamino]-2-oxoethyl]-Ala[Gln121,Leu168,Cys169]FGF21 (from UniProt Q9NSA1 29-209) (ligand)” are 20 nM and 25 nM.
In test [2], “S{Beta-173}-[2-[2-[[2-[2-[2-[[2-[2-[2-[[(4S)-4-carboxy-4-(15-carboxypentadecanoyl-amino)butanoyl]amino]ethoxy]ethoxy]acetyl]amino]ethoxy]ethoxy]acetyl]amino]-ethylamino]-2-oxoethyl]-Ala[Gln121,Leu168,Cys173]FGF21 (from UniProt Q9NSA1 29-209) (ligand)” had an EC50 (0.1% HSA) (nM), pERK, HEK293/BKL cells of 4 nM and an EC50 (nM), pERK, HEK293/BKL cells of 3 nM.
As for “S{Beta-174}-[2-[2-[[2-[2-[2-[[2-[2-[2-[[(4S)-4-carboxy-4-(13-carboxytridecanoyl-amino)butanoyl]amino]ethoxy]ethoxy]acetyl]amino]ethoxy]ethoxy]acetyl]amino]-ethylamino]-2-oxoethyl]-Ala[Gln121,Leu168,Cys174]FGF21 (from UniProt Q9NSA1 29-209) (ligand)”, in test [2], the EC50 (0.1% HSA) (nM), pERK, HEK293/BKL cells is 4 nM and the EC50 (nM), pERK, HEK293/BKL cells came out at 4 nM.
With “S{Beta-175}-[2-[2-[[2-[2-[2-[[2-[2-[2-[[(4S)-4-carboxy-4-(15-carboxypentadecanoyl-amino)butanoyl]amino]ethoxy]ethoxy]acetyl]amino]ethoxy]ethoxy]acetyl]amino]-ethylamino]-2-oxoethyl]-Ala[Gln121,Leu168,Cys175]FGF21 (from UniProt Q9NSA1 29-209) (ligand)”, in test [2], the EC50 (0.1% HSA) (nM), pERK, HEK293/BKL cells came out at 1 nM and the EC50 (nM), pERK, HEK293/BKL cells stood at 1 nM.
Turning to “S{Beta-176}-2-aminoethylsulfanyl-Ala[Gln121,Leu168,Cys176]FGF21 (from UniProt Q9NSA1 29-209) (ligand)”, in test [1], the Glucose uptake EC50 (nM), 3T3-L1 adipocytes was 73 nM and the Glucose uptake Emax (%), 3T3-L1 adipocytes was 84%. The substance also gave an EC50 (nM), pERK, HEK293/BKL cells in test [2] of 227 nM.
Regarding “S{Beta-176}-[2-[2-[[2-[2-[2-[[2-[2-[2-[[(4S)-4-carboxy-4-(15-carboxypentadecanoyl-amino)butanoyl]amino]ethoxy]ethoxy]acetyl]amino]ethoxy]ethoxy]acetyl]amino]-ethylamino]-2-oxoethyl]-Ala[Gln121,Leu168,Cys176]FGF21 (from UniProt Q9NSA1 29-209) (ligand)”, in test [2], the EC50 (0.1% HSA) (nM), pERK, HEK293/BKL cells was 373 nM and the EC50 (nM), pERK, HEK293/BKL cells was 214 nM.
In the case of “S{Beta-178}-2-aminoethylsulfanyl-Ala[Gln121,Leu168,Cys178]FGF21 (from UniProt Q9NSA1 29-209) (ligand)”, in test [1], the Glucose uptake EC50 (nM), 3T3-L1 adipocytes is 50 nM and the Glucose uptake Emax (%), 3T3-L1 adipocytes stood at 69%. This substance also displayed an EC50 (nM), pERK, HEK293/BKL cells in test [2] of 105 nM.
In the same order, the values of “S{Beta-179}-2-aminoethylsulfanyl-Ala[Gln121,Leu168,Cys179]FGF21 (from UniProt Q9NSA1 29-209) (ligand)” are 25 nM, 77% and 69 nM.
In test [1], “S{Beta-179}-[2-[2-[[2-[2-[2-[[2-[2-[2-[[(4S)-4-carboxy-4-(15-carboxypentadecanoyl-amino)butanoyl]amino]ethoxy]ethoxy]acetyl]amino]ethoxy]ethoxy]acetyl]amino]-ethylamino]-2-oxoethyl]-Ala[Gln121,Leu168,Cys179]FGF21 (from UniProt Q9NSA1 29-209) (ligand)” displayed a Glucose uptake EC50 (nM), 3T3-L1 adipocytes of 107 nM and a Glucose uptake Emax (%), 3T3-L1 adipocytes of 54%. In test [2], this substance gave an EC50 (0.1% HSA) (nM), pERK, HEK293/BKL cells of 134 nM and an EC50 (nM), pERK, HEK293/BKL cells of 107 nM.
Take “S{Beta-180}-2-aminoethylsulfanyl-Ala[Gln121,Leu168,Cys180,des181]FGF21 (from UniProt Q9NSA1 29-207) (ligand)”: in test [1], the Glucose uptake EC50 (nM), 3T3-L1 adipocytes was 73 nM and the Glucose uptake Emax (%), 3T3-L1 adipocytes worked out at 72%. The EC50 (nM), pERK, HEK293/BKL cells in test [2] came to 20 nM.
In test [1], “S{Beta-180}-2-aminoethylsulfanyl-Ala[Gln121,Leu168,Cys180]FGF21 (from UniProt Q9NSA1 29-209) (ligand)” displayed a Glucose uptake EC50 (nM), 3T3-L1 adipocytes of 2.6 nM and a Glucose uptake Emax (%), 3T3-L1 adipocytes of 102%. The substance further showed an EC50 (nM), pERK, HEK293/BKL cells in test [2] of 2.3 nM.
Consider “S{Beta-180}-[2-[2-[[2-[2-[2-[[2-[2-[2-[[(4S)-4-carboxy-4-(11-carboxyundecanoyl-amino)butanoyl]amino]ethoxy]ethoxy]acetyl]amino]ethoxy]ethoxy]acetyl]amino]-ethylamino]-2-oxoethyl]-Ala[Gln121,Leu168,Cys180]FGF21 (from UniProt Q9NSA1 29-209) (ligand)”, for which, in test [1], the Glucose uptake EC50 (nM), 3T3-L1 adipocytes was 2.7 nM and the Glucose uptake Emax (%), 3T3-L1 adipocytes was found to be 87%. In test [2], the EC50 (0.1% HSA) (nM), pERK, HEK293/BKL cells worked out at 4 nM and the EC50 (nM), pERK, HEK293/BKL cells came out at 7 nM.
As to “S{Beta-180}-[2-[2-[[2-[2-[2-[[2-[2-[2-[[(4S)-4-carboxy-4-(13-carboxytridecanoyl-amino)butanoyl]amino]ethoxy]ethoxy]acetyl]amino]ethoxy]ethoxy]acetyl]amino]-ethylamino]-2-oxoethyl]-Ala[Gln121,Leu168,Cys180]FGF21 (from UniProt Q9NSA1 29-209) (ligand)”, in test [1], the Glucose uptake EC50 (nM), 3T3-L1 adipocytes was determined as 6.7 nM and the Glucose uptake Emax (%), 3T3-L1 adipocytes was 106%. In test [2], this substance had an EC50 (0.1% HSA) (nM), pERK, HEK293/BKL cells of 6 nM and an EC50 (nM), pERK, HEK293/BKL cells of 6 nM.
Regarding “S{Beta-180}-[2-[2-[[2-[2-[2-[[2-[2-[2-[[(4S)-4-carboxy-4-(15-carboxypentadecanoyl-amino)butanoyl]amino]ethoxy]ethoxy]acetyl]amino]ethoxy]ethoxy]acetyl]amino]-ethylamino]-2-oxoethyl]-Ala[Gln121,Leu168,Cys180]FGF21 (from UniProt Q9NSA1 29-209) (ligand)”, in test [1], the Glucose uptake EC50 (nM), 3T3-L1 adipocytes turned out to be 9.1 nM and the Glucose uptake Emax (%), 3T3-L1 adipocytes amounted to 98%. Further, in test [2], the EC50 (0.1% HSA) (nM), pERK, HEK293/BKL cells stood at 6 nM and the EC50 (nM), pERK, HEK293/BKL cells stood at 4 nM.
In the same order, the values of “S{Beta-180}-[2-[2-[[2-[2-[2-[[2-[2-[2-[[(4S)-4-carboxy-4-(17-carboxyheptadecanoyl-amino)butanoyl]amino]ethoxy]ethoxy]acetyl]amino]ethoxy]ethoxy]acetyl]amino]-ethylamino]-2-oxoethyl]-Ala[Gln121,Leu168,Cys180,des181]FGF21 (from UniProt Q9NSA1 29-207) (ligand)” are 8 nM, 71%, 20 nM and 8 nM.
In the same order, the values of “S{Beta-180}-[2-[2-[[2-[2-[2-[[2-[2-[2-[[(4S)-4-carboxy-4-(17-carboxyheptadecanoyl-amino)butanoyl]amino]ethoxy]ethoxy]acetyl]amino]ethoxy]ethoxy]acetyl]amino]-ethylamino]-2-oxoethyl]-Ala[Gln121,Leu168,Cys180]FGF21 (from UniProt Q9NSA1 29-209) (ligand)” are 32 nM, 109%, 48 nM and 5 nM.
The corresponding values for “S{Beta-180}-[2-[2-[[2-[2-[2-[[2-[2-[2-[[(4S)-4-carboxy-4-(19-carboxynonadecanoyl-amino)butanoyl]amino]ethoxy]ethoxy]acetyl]amino]ethoxy]ethoxy]acetyl]amino]-ethylamino]-2-oxoethyl]-Ala[Gln121,Leu168,Cys180]FGF21 (from UniProt Q9NSA1 29-209) (ligand)” are 24 nM, 53%, 133 nM and 5 nM.
Take “S{Beta-181}-2-aminoethylsulfanyl-Ala[Gln121,Leu168,Cys181]FGF21 (from UniProt Q9NSA1 29-208) (ligand)”: in test [1], the Glucose uptake EC50 (nM), 3T3-L1 adipocytes was 5 nM and the Glucose uptake Emax (%), 3T3-L1 adipocytes was determined as 74%. Also, the EC50 (nM), pERK, HEK293/BKL cells in test [2] is 27 nM.
In the case of “S{Beta-181}-[2-[2-[[2-[2-[2-[[2-[2-[2-[[(4S)-4-carboxy-4-(11-carboxyundecanoyl-amino)butanoyl]amino]ethoxy]ethoxy]acetyl]amino]ethoxy]ethoxy]acetyl]amino]-ethylamino]-2-oxoethyl]-Ala[Gln121,Leu168,Cys181]FGF21 (from UniProt Q9NSA1 29-208) (ligand)”, in test [2], the EC50 (0.1% HSA) (nM), pERK, HEK293/BKL cells was determined as 137 nM and the EC50 (nM), pERK, HEK293/BKL cells is 154 nM.
“S{Beta-181}-[2-[2-[[2-[2-[2-[[2-[2-[2-[[(4S)-4-carboxy-4-(13-carboxytridecanoyl-amino)butanoyl]amino]ethoxy]ethoxy]acetyl]amino]ethoxy]ethoxy]acetyl]amino]-ethylamino]-2-oxoethyl]-Ala[Gln121,Leu168,Cys181]FGF21 (from UniProt Q9NSA1 29-208) (ligand)”: in test [1], the Glucose uptake EC50 (nM), 3T3-L1 adipocytes was determined as 7.2 nM and the Glucose uptake Emax (%), 3T3-L1 adipocytes amounted to 55%. Moreover, in test [2], the EC50 (0.1% HSA) (nM), pERK, HEK293/BKL cells is 41 nM and the EC50 (nM), pERK, HEK293/BKL cells came to 58 nM.
